Assay results as given in the supplement of paper PMC12667976.
± gives the standard error.

B1: library; numbered along this chain (parent)
chain: MATDAALRRLLRLHRTEIAVAVDSAFPLLHALADHDVVPEDKFQETLHLKEKEGCPQAFHALLSWLLTQDSTAILDFWRVLFKDYNLERYGRLQPILDSFPKDVDLSQPRKGRKPPAVPKALVPPPRLPTKRKASEEARAAAPAALTPRGTASPGSQLKAKPPKKPESSAEQQRLPLGNGIQTMSASVQRAVAMSSGDVPGARGAVEGILIQQVFESGGSKKCIQVGGEFYTPSKFEDSGSGKNKARSSSGPKPLVRAKGAQGAAPGGGEARLGQQGSVPAPLALPSDPQLHQKNEDECAVCRDGGELICCDGCPRAFHLACLSPPLREIPSGTWRCSSCLQATVQEVQPRAEEPRPQEPPVETPLPPGLRSAGEEVRGPPGEPLAGMDTTLVYKHLPAPPSAAPLPGLDSSALHPLLCVGPEGQQNLAPGARCGVCGDGTDVLRCTHCAAAFHWRCHFPAGTSRPGTGLRCRSCSGDVTPAPVEGVLAPSPARLAPGPAKDDTASHEPALHRDDLESLLSEHTFDGILQWAIQSMARPAAPFPS

Variants of: B1
Experiment: AIRE transcriptional activation functional score (insulin promoter-GFP; nonsense median 0, synonymous median 1) (normalised score); higher = higher AIRE activity (more reporter activation)
Conditions: with insulin promoter-GFP reporter in HEK293
Procedure: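 Deep mutational scan of full-length human AIRE (codon-optimized cDNA, DT-POPCode NNN libraries over three regions) integrated at a Bxb1 landing pad in HEK293 cells carrying an insulin core promoter-GFP reporter at a Flp-In site. Cells were sorted for the top 10% GFP about 14 days after transfection. Variant frequency log-ratios (select vs non-select, TileSeq) were rescaled so that the nonsense median is 0 and the synonymous median is 1, then averaged over biological replicates.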

Variant	AIRE transcriptional activation functional score
G305I	-0.493 ± 0.32
G462P	0.607 ± 0.22
H454L	-0.161 ± 0.21
F525Y	0.369 ± 0.16
S545T	0.998 ± 0.12
R247L	0.895 ± 0.3
A160H	0.574 ± 0.035
I528F	0.795 ± 0.1
E347V	0.892 ± 0.13
S234L	1.04 ± 0.18
L392N	0.909 ± 0.1
A186T	0.873 ± 0.31
D514A	0.214 ± 0.078
Q425P	1.21 ± 0.11
P416K	0.665 ± 0.13
Q189F	-0.181 ± 0.14
S249C	1.33 ± 0.2
A451Q	-0.927 ± 0.22
D36H	-1.75 ± 0.66
R538N	-0.187 ± 0.14
P266R	0.795 ± 0.33
P266W	0.984 ± 0.075
P266Q	0.916 ± 0.05
H396W	1.28 ± 0.058

Variant	AIRE transcriptional activation functional score
H396Q	1.12 ± 0.14
L341R	1.16 ± 0.16
A202W	0.488 ± 0.049
K42M	0.538 ± 0.17
K42W	-0.0922 ± 0.25
L97R	0.805 ± 0.28
T72P	0.606 ± 0.35
T72H	1.39 ± 0.13
L87H	-0.266 ± 0.27
F230H	0.48 ± 0.089
L470H	0.541 ± 0.12
S287E	0.811 ± 0.19
S287I	1.07 ± 0.22
P95H	0.425 ± 0.95
P95Q	1.61 ± 0.48
W78N	-0.791 ± 0.45
A61V	0.328 ± 0.53
R351K	0.457 ± 0.088
R351H	0.73 ± 0.091
R351I	0.573 ± 0.3
S241I	1.06 ± 0.23
V484D	0.164 ± 0.18
E167H	-0.185 ± 0.41
D23Q	-0.673 ± 0.46

Variant	AIRE transcriptional activation functional score
D23S	0.041 ± 0.23
I211C	0.481 ± 0.047
P286K	0.495 ± 0.61
G260D	0.772 ± 0.12
A141C	0.959 ± 0.26
A141D	1.25 ± 0.18
Q346N	0.737 ± 0.25
C337H	1.85 ± 0.1
E485Y	0.948 ± 0.18
E485V	0.951 ± 0.26
E485K	0.777 ± 0.1
A352F	1.38 ± 0.045
A352D	1.08 ± 0.031
P101V	-1.95 ± 0.24
V206I	1.26 ± 0.28
V206N	0.529 ± 0.24
P27S	0.41 ± 0.23
P27H	0.254 ± 0.38
P27F	-0.037 ± 0.22
C434L	0.207 ± 0.089
I181P	-1.22 ± 0.25
I181S	0.834 ± 0.54
A461D	0.676 ± 0.16
A73H	2.12 ± 0.25

Variant	AIRE transcriptional activation functional score
L47V	0.302 ± 0.51
V348E	0.956 ± 0.17
F236N	1.68 ± 0.29
F236G	0.726 ± 0.27
T16E	1.64 ± 0.14
S518P	0.384 ± 0.23
E51G	0.279 ± 0.29
P367T	1.17 ± 0.21
A152P	0.594 ± 1
D503S	0.908 ± 0.26
T364P	0.694 ± 0.36
P544V	0.842 ± 0.046
P357A	1.01 ± 0.11
G267R	0.84 ± 0.46
G267L	0.938 ± 0.43
G242Q	0.988 ± 0.47
P509T	0.871 ± 0.34
P39M	-0.22 ± 0.14
V377W	1.82 ± 0.044
P381F	1.15 ± 0.23
E517I	0.0464 ± 0.059
E298V	0.91 ± 0.23
L406A	0.954 ± 0.24
S476Y	1.19 ± 0.18

Variant	AIRE transcriptional activation functional score
R303S	0.997 ± 0.2
R303F	1.47 ± 0.086
L49F	0.262 ± 0.49
C457L	-0.0524 ± 0.16
C457W	0.0502 ± 0.067
K52T	1.21 ± 0.53
D502N	0.775 ± 0.2
L495M	0.186 ± 0.34
G467V	1.06 ± 0.32
G467C	0.822 ± 0.074
F453G	0.315 ± 0.17
G277L	0.959 ± 0.17
G277R	1.21 ± 0.25
L308Q	1.3 ± 0.049
K259S	0.917 ± 0.14
A264C	0.799 ± 0.16
E53H	0.435 ± 0.54
T391F	1.41 ± 0.22
T391K	0.54 ± 0.28
T391M	1.02 ± 0.17
A300D	1.26 ± 0.14
S107C	1.12 ± 0.22
E136F	0.605 ± 0.16
A134I	1.43 ± 0.48

Variant	AIRE transcriptional activation functional score
R371T	0.753 ± 0.3
E508N	0.552 ± 0.15
T480Y	0.806 ± 0.041
G274L	1 ± 0.27
D103A	0.291 ± 0.44
H458K	0.374 ± 0.17
H458D	1.4 ± 0.42
G180F	-0.106 ± 0.1
T183I	0.211 ± 0.1
R433Y	0.349 ± 0.15
R433H	0.569 ± 0.21
R433M	0.755 ± 0.12
R433T	0.808 ± 0.18
R433P	0.565 ± 0.22
G218H	1.03 ± 0.086
G218T	1.11 ± 0.54
T447D	0.924 ± 0.24
T447E	0.425 ± 0.056
Q342M	1.09 ± 0.031
S372D	1.06 ± 0.14
L13I	0.695 ± 0.26
L13R	1.36 ± 0.45
P254N	-0.115 ± 0.07
H415V	1.06 ± 0.16

Variant	AIRE transcriptional activation functional score
H415M	-0.327 ± 0.28
A432V	0.872 ± 0.29
V214W	0.402 ± 0.049
V214G	0.556 ± 0.29
L428G	0.959 ± 0.25
G204A	1.42 ± 0.21
A450E	1.24 ± 0.089
A19R	0.348 ± 0.55
Q426L	1.06 ± 0.23
Q426S	0.831 ± 0.54
D297P	1.29 ± 0.23
C340P	1.49 ± 0.32
L106R	0.112 ± 0.35
E353N	0.963 ± 0.22
C302G	0.54 ± 0.15
Q534M	0.598 ± 0.038
A261R	0.741 ± 0.37
G435D	-0.0125 ± 0.24
G435L	0.516 ± 0.29
K253N	0.817 ± 0.22
K253C	1.39 ± 0.044
D304V	0.99 ± 0.34
D304M	1.31 ± 0.084
